The results in this text go back to patent publication US20140357543A1.

First the molecules themselves.
T1: alcalase (trade name "Alcalase 2.5L", Novozymes) (UniProt P00780)
T1 sequence (looked up): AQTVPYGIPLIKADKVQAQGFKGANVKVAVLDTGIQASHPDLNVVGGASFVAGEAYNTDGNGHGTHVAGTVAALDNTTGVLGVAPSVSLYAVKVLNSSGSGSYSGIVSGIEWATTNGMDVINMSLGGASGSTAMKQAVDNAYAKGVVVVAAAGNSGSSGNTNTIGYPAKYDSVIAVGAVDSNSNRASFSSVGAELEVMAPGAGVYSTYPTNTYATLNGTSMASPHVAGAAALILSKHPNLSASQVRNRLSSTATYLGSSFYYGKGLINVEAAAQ

B1: proteinaceous protease inhibitor of SEQ ID NO:40 (protein)
chain: TECGGGGGAKTSWPEVVGLSVEEAKKVILKDKPDADIVVLPVGSVVTADYRPNRVRIFVDIVAQTPHVG
B2: proteinaceous protease inhibitor (BC) of SEQ ID NO:1, wheat-derived subtilisin/chymotrypsin inhibitor (protein)
chain: TDTGDHHNQKTEWPELVGKSVEEAKKVILQDKSEAQIVVLPVGTIVTMEYRIDRVRLFVDSLDKIAQVPRVG
B3: proteinaceous protease inhibitor of SEQ ID NO:6 (protein)
chain: TDTGDHHNQKTEWPELVGKSVEEAKKVILQDKSEAQIIVLPVGTIVTMEYRIDRVRLFVDSLDKIAQVPRVG
B4: proteinaceous protease inhibitor of SEQ ID NO:5 (protein)
chain: TDTGDHHNQKTEWPELVGKSVEEAKKVILQDKSEAQILVLPVGTIVTMEYRIDRVRLFVDSLDKIAQVPRVG
B5: proteinaceous protease inhibitor of SEQ ID NO:32 (protein)
chain: MSSVEKKPEGVNTGAGDRHNLKTEWPELVGKSVEEAKKVILQDKSEAQIIVLPVGTIVTMEARIDRVRLFVDKLDNIAQVPRVG
B6: proteinaceous protease inhibitor of SEQ ID NO:35 (protein)
chain: MSSVEKKPEGVNTGAGDRHNLKTEWPELVGKSVEEAKKVILQDKSEAQIIVLPVGTIVTMEYRIARVRLFVDKLDNIAQVPRVG
B7: proteinaceous protease inhibitor of SEQ ID NO:33 (protein)
chain: MSSVEKKPEGVNTGAGDRHNLKTEWPELVGKSVEEAKKVILQDKSEAQIIVLPVGTIVTMEYAIDRVRLFVDKLDNIAQVPRVG
B8: proteinaceous protease inhibitor of SEQ ID NO:34 (protein)
chain: MSSVEKKPEGVNTGAGDRHNLKTEWPELVGKSVEEAKKVILQDKSEAQIIVLPVGTIVTMEYRADRVRLFVDKLDNIAQVPRVG
B9: proteinaceous protease inhibitor of SEQ ID NO:41 (protein)
chain: MSSVEKKPEGVNTGAGDRHNLKTEWPELVGKSVEEAKKVILQDKSEAQIIVLPVGTIVTMEYRIDRVRLFVDKLDNIAQVPRVG
B10: proteinaceous protease inhibitor of SEQ ID NO:36 (protein)
chain: MSSVEKKPEGVNTGAGDRHNLKTEWPELVGKSVEEAKKVILQDKSEAQIIVLPVGTIVTMEYRIDRVRLFVDKLDNIAQVPAVG

In this test the target is T1, alcalase (trade name "Alcalase 2.5L", Novozymes). As to the kind of experiment: cell-based or functional assay.
As to B1, the Protease activity upon dilution (%) immediately after preparation stood at 100% and the Remaining activity (%) immediately after preparation was found to be 53%.

On to B2, for which the Protease activity upon dilution (%) immediately after preparation turned out to be 10% and the Remaining activity (%) immediately after preparation was found to be 0%.

Turning to B3, the Protease activity upon dilution (%) immediately after preparation stood at 10% and the Remaining activity (%) immediately after preparation is 0%.

For the molecule B4, the Protease activity upon dilution (%) immediately after preparation is 100% and the Remaining activity (%) immediately after preparation was found to be 11%.

The molecule B5 showed a Protease activity upon dilution (%) immediately after preparation of 73% and a Remaining activity (%) immediately after preparation of 15%.

The molecule B6 showed a Protease activity upon dilution (%) immediately after preparation of 80% and a Remaining activity (%) immediately after preparation of 2%.

For the molecule B7, the Protease activity upon dilution (%) immediately after preparation came to 18% and the Remaining activity (%) immediately after preparation was 1%.

In turn, B8 yielded a Protease activity upon dilution (%) immediately after preparation of 75% and a Remaining activity (%) immediately after preparation of 1%.

Turning to B9, the Protease activity upon dilution (%) immediately after preparation was found to be 8% and the Remaining activity (%) immediately after preparation was 0%.

B10 had a Protease activity upon dilution (%) immediately after preparation of 81% and a Remaining activity (%) immediately after preparation of 1%.
